Test results reported in article PMC10485164, “Sequence-specific targeting of Caenorhabditis elegans C-Ala to the D-loop of tRNAAla”.
Changes are numbered by the printed parent chain.

Experiments:
Ce-C-Alac K938A = target: T1, Ce-C-Alac K938A (Caenorhabditis elegans, UniProt O01541 757-968, K938A); test: EMSA; 5 mM Mg2+; EMSA: 20 mM Hepes pH 7.5, 20 mM KCl, 5 mM MgCl2, 2 mM DTT, 10 min on ice, 0.1 uM ligand; 5% native PAGE in 0.5x TBE at 4 C; protein 0.125-32 uM; settings: protein: recombinant; tags: His6 (C-terminal, pET21b); label: 5'-32P; tRNA cloverleaf
T1 sequence: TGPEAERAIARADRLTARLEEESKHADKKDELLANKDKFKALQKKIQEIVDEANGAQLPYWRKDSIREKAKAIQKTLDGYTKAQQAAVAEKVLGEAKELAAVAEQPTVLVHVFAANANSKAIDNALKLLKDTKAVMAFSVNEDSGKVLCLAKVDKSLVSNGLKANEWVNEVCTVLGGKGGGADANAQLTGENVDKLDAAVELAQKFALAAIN

Ce-C-Alac K934A = target: T2, Ce-C-Alac K934A (Caenorhabditis elegans, UniProt O01541 757-968, K934A); test: as above; settings: protein: recombinant; tags: His6 (C-terminal, pET21b); label: 5'-32P; tRNA cloverleaf
T2 sequence: T1 sequence with K178A, A182K

B1: CetRNAnAla (structured_RNA)
RNA: GGGGGUAUAGCUCAGUGGUAGAGCGCUCCCUUAGCAUGGGAGAGGGCUGGGGUUCAAUUCCCCAUACCUCCACCA
- binding signal (Ce-C-Alac K938A): 3 fold lower affinity than WT Ce-C-Alac
- binding signal (Ce-C-Alac K934A): 11 fold lower affinity than WT Ce-C-Alac
